# Test results: paper PMC12640004
# Target: JrERF113-HIS (Juglans regia)
# Experiment: EMSA
row,Binder,binding result
1,JrIPT1 bioProbe (wild type) (dsDNA) DNA 1: ATCATACTGATGGAGGAGGGCGGTCCCGAATTTATATATATAGTTTCTAC DNA 2: GTAGAAACTATATATATAAATTCGGGACCGCCCTCCTCCATCAGTATGAT,binds
2,JrIPT1 mbioProbe (GCC-box mutant) (dsDNA) DNA 1: ATCATACTGATGGAGTATTTCTTTCCCGAATTTATATATATAGTTTCTAC DNA 2: GTAGAAACTATATATATAAATTCGGGAAAGAAATACTCCATCAGTATGAT,no binding
